Data: publication PMC7588459 (Scientific Reports, 2020)
Residue numbers refer to the chain shown, from its start. In names and notes the source's numbering stands.

B1: m102.4 VH K31A (antibody, V domains shown)
VH: EVQVIQSGADVKKPGSSVKVSCKSSGGTFSAYAINWVRQAPGQGLEWMGGIIPILGIANYAQKFQGRVTITTDESTSTAYMELSSLRSEDTAVYYCARGWGREQLAPHPSQYYYYYYGMDVWGQGTTVTVSS
VL: EIVMTQSPGTLSLAPGERATLSCWASQSVRNNYLAWYQQKPGQAPRLVIYNGSTRATGIPDRFSGSGSGTDFTLTISRLDPEDFAVYYCQQYGNSRRVTFGGGTKVEIK
B2: m102.4 VH P107A (antibody, V domains shown)
VH: B1 VH with A31K, P107A
VL: B1 VL
B3: m102.4 VH S110A (antibody, V domains shown)
VH: B1 VH with A31K, S110A
VL: B1 VL
B4: m102.4 VH H108A (antibody, V domains shown)
VH: B1 VH with A31K, H108A
VL: B1 VL
B5: m102.4 VH E103A (antibody, V domains shown)
VH: B1 VH with A31K, E103A
VL: B1 VL
B6: m102.4 VH Q111A (antibody, V domains shown)
VH: B1 VH with A31K, Q111A
VL: B1 VL
B7: m102.4 VH A106W (antibody, V domains shown)
VH: B1 VH with A31K, A106W
VL: B1 VL
B8: m102.4 VH I57A (antibody, V domains shown)
VH: B1 VH with A31K, I57A
VL: B1 VL
B9: m102.4 VH Y114A (antibody, V domains shown)
VH: B1 VH with A31K, Y114A
VL: B1 VL
B10: m102.4 VH Y113A (antibody, V domains shown)
VH: B1 VH with A31K, Y113A
VL: B1 VL
B11: m102.4 VH R102A (antibody, V domains shown)
VH: B1 VH with A31K, R102A
VL: B1 VL
B12: m102.4 VH P109A (antibody, V domains shown)
VH: B1 VH with A31K, P109A
VL: B1 VL
B13: m102.4 VH Y112A (antibody, V domains shown)
VH: B1 VH with A31K, Y112A
VL: B1 VL
B14: m102.4 VH I54A (antibody, V domains shown)
VH: B1 VH with A31K, I54A
VL: B1 VL
B15: m102.4 VL R30A (antibody, V domains shown)
VH: B1 VH with A31K
VL: B1 VL with R30A
notes: also called LC:R30 to alanine
B16: m102.4 VH L105A (antibody, V domains shown)
VH: B1 VH with A31K, L105A
VL: B1 VL
B17: m102.4 VH G56A (antibody, V domains shown)
VH: B1 VH with A31K, G56A
VL: B1 VL
B18: m102.4 VH Q104A (antibody, V domains shown)
VH: B1 VH with A31K, Q104A
VL: B1 VL
B19: m102.4 VH L55A (antibody, V domains shown)
VH: B1 VH with A31K, L55A
VL: B1 VL

Each binder was assayed against T1, Nipah virus attachment (receptor-binding) glycoprotein (GP), wild type (Nipah virus; strain of the assayed …, UniProt Q9IH62) (assay: ELISA). Conditions: both partners purified.
T1 construct: source: HEK 293-F FreeStyle, transiently transfected, purified from supernatant (Ni-NTA)
Binder B1 has a Kd of 0.08 nM.
For B2, the Kd was 0.09 nM.
B3 gave a Kd of 0.13 nM.
In the case of B4, the Kd is reported as 0.09 nM.
B5 gave a Kd of 1.83 nM.
B6 gave a Kd of 0.08 nM.
For B7, the Kd was 4.95 nM.
B8 was tested, and the Kd was 0.1 nM.
B9 showed a Kd of 0.07 nM.
With B10 the Kd was 0.12 nM.
B11 was tested, and the Kd was 0.09 nM.
B12 gave a Kd of 0.1 nM.
Work on B13 yielded a Kd of 0.11 nM.
B14 gave a Kd of 0.13 nM.
For B15, the Kd was 0.13 nM.
B16 showed a Kd of 0.1 nM.
B17 was tested, and the Kd was 0.09 nM.
For B18, the Kd was 0.1 nM.
B19 showed a Kd of 0.1 nM.
